B1: Mothers against decapentaplegic homolog 4 (Homo sapiens), Q13485 (parent)
chain: MDNMSITNTPTSNDACLSIVHSLMCHRQGGESETFAKRAIESLVKKLKEKKDELDSLITAITTNGAHPSKCVTIQRTLDGRLQVAGRKGFPHVIYARLWRWPDLHKNELKHVKYCQYAFDLKCDSVCVNPYHYERVVSPGIDLSGLTLQSNAPSSMMVKDEYVHDFEGQPSLSTEGHSIQTIQHPPSNRASTETYSTPALLAPSESNATSTANFPNIPVASTSQPASILGGSHSEGLLQIASGPQPGQQQNGFTGQPATYHHNSTTTWTGSRTAPYTPNLPHHQNGHLQHHPPMPPHPGHYWPVHNELAFQPPISNHPAPEYWCSIAYFEMDVQVGETFKVPSSCPIVTVDGYVDPSGGDRFCLGQLSNVHRTEAIERARLHIGKGVQLECKGEGDVWVRCLSDHAVFVQSYYLDREAGRAPGDAVHKIYPSAYIKVFDLRQCHRQMQQQAATAQAAAAAQAAAVAGNIPGPGSVGGIAPAISLSAAAGIGVDDLRRLCILRMSFVKGWGPDYPRQSIKETPCWIEIHLHRALQLLDEVLHTMPIADPQPLD

Variants of: B1
Conditions: with smad1_human SMAD1, Q15797
smad1_human SMAD1, Q15797, sequence (Q15797 whole entry): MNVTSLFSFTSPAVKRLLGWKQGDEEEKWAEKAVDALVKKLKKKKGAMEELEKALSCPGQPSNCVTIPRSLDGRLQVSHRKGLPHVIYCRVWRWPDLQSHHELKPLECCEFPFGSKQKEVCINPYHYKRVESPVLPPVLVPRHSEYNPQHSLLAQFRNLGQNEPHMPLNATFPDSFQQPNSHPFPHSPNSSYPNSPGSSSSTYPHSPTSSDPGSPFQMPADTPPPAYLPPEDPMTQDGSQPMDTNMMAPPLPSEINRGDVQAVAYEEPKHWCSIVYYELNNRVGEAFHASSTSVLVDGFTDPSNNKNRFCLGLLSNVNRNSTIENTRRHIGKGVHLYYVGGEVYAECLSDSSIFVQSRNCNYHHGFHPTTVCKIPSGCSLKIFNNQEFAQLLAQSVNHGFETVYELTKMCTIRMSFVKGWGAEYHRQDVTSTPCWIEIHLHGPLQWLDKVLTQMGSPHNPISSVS
In the case of D351H, the “effect of a mutation on the interaction” value is reported as “disrupting interaction strength”. K507S was tested, and the “effect of a mutation on the interaction” value was “disrupting interaction strength”. With R515S the “effect of a mutation on the interaction” value was “disrupting interaction strength”. For D537E, the “effect of a mutation on the interaction” value was “decreasing interaction strength”. V426S was tested, and the “effect of a mutation on the interaction” value was “decreasing interaction strength”.
